Reference: the DeepSol protein solubility set

Test: soluble on expression in E. coli; label from the status in PepcDB or PDB records
For “GPGSMQLQSRAPEHFSTPFFSSPSSSVAYESGCSLDALERLVHFTGAGADACLYAVHPPQAKGTDSAALTPTTEGLRYWLNPSVRARPTTATCEITNLGPPFFASTSTAVLRISATPLFVDGRCFPTRCVVSLATSAQRLDGVSLRPVVVTEWNLTASGAAGVCTTTVPLRTLYHLAVLISSSAPATGVEEVRLYLHLRFMGCSDGSDTHRIAAVRLRYEQLGTAAEVLPQLLQRRQRAAAHVMLPSPYDVKYHSEGRFTRAGAPLEEVEVGVIAGSSTATSSGRKDMGDDAGKSLFVGAKERRTHTSPPSSTRMRSDGCETRGDRRRGRAPRGC”, the “soluble on expression in E. coli” value was “soluble”. In the case of “MAYRERAAWAPEGYMLPLPGACLPSLPENLPGAPRPYRKGVSAGFVFRQGDACVPVVRGMGVVAAFGGEVVKVDPDFQELSEEAWQALLERVREGASPEEMDILRGLEVHVRHPDGRTTVYAHLQAPYPGLKVGSRVHRGDPIGYVGNTGLRGGASRLLFEVWEGEPDRSAFLFQGLEGEELLRRARAFFGLP”, the “soluble on expression in E. coli” value is reported as “soluble”. For “MAGPQQQPPYLHLAELTASQFLEIWKHFDADGNGYIEGKELENFFQELEKARKGSGMMSKSDNFGEKMKEFMQKYDKNSDGKIEMAELAQILPTEENFLLCFRQHVGSSTEFMEAWRKYDTDRSGYIEANELKGFLSDLLKKANRPYDEPKLQEYTQTILRMFDLNGDGKLGLSEMSRLLPVQENFLLKFQGMKLTSEEFNAIFTFYDKDRSGYIDEHELDALLKDLYEKNKKEMNIQQLTNYRKSVMSLAEAGKLYRKDLEIVLCSEPPM”, the “soluble on expression in E. coli” value was “not soluble”. For “MASYSQFLTKAQEDELRSIANAIVTPGKGILAADESTGSMDKRLNSIGLENTEENRRKYRQLLFTAGADLNKYISGVIMFHETFYQKTDDGKPFTALLQEQGIIPGIKVDKGVVPMAGTIGEGTTQGLDDLNARCAQYKKDGAQFAKWRCVHKISSTTPSVTALKEIASNLARYASICQQNGLVPIVEPEILPDGEHCLARGQKITETVLSYVYHALNEHHVFLEGTLLKPNMVTSGQSFTGEKPSNADIGLATVTALQRGVPSAVPGVVFLSGGQSEEDATLNLNAINQVSGKKPWALTFSYGRALQASCLAKWAGKDENIAAAQEVLLHRAQVNSLASVGKYTGDASADAAASQSLFVANHSY”, the “soluble on expression in E. coli” value was “soluble”. With “VINESEKEMIDSIFEFDDRIAEEVMTPRTEVYLINIDTPLNKYVDELLEIKYSRVPVFEGDSDNIIGILYIKDFIVEARKVGFENVNIKNIIHSPYFVPERKNINELFKELQAAKKHMAVLIDEYGGFSGIVTIEDLIEEVMGNISDE” the “soluble on expression in E. coli” value was “soluble”. In the case of “MGSDKIHHHHHHMDDLRDSLDRIKSICSEIVVQFESSDVAESLKALQKAVNEAAKSWSGSWLGYHSRVYYNQLQPVPPGARFSQEWGLSDGLSNETRGDWCEYDFDSIYNILKSKAINFSLEQLNELANYANEEIPDLREELISIIFSCLASGEDTYLDRLKQEAELCKTSSVGEFVDYLRGGGQFFSRDRVAVLSGSQTPPHIYLQAQLLAVQSPSTVAKSLKKIANRLALHLTNKSRTYMYSSQPGTHVFIGHGHSPLWRDLKDFISERLKLPWDEFNRLPIAGINNTVRLSQMLDSAAIAFLIMTGEDEQSDLKLRARMNVIHEAGLFQGRLGFRRAILLLEEGCENFSNVDGIGYINFPRGNIKACFEDVRMVLEREGLV”, the “soluble on expression in E. coli” value is reported as “not soluble”. In the case of “MGSDKIHHHHHHMRIIETIEEMKKFSEEMREKKKTIGFVPTMGYLHEGHLSLVRRARAENDVVVVSIFVNPTQFGPNEDYERYPRDFERDRKLLEKENVDCIFHPSVEEMYPPDFSTYVEETKLSKHLCGRSRPGHFRGVCTVVTKLFNIVKPHRAYFGQKDAQQFRVLRRMVRDLNMDVEMIECPIVREPDGLAMSSRNVYLSPEERQQALSLYQSLKIAENLYLNGERDAEKIKEEMIKHLSRFDKVKIDYVEIVDEETLEPVEKIDRKVIVAVAAWVGNARLIDNTILG”, the “soluble on expression in E. coli” value is reported as “not soluble”. With “HSHDWLTYPAGIHAKTVTGKPLVVHVHATDFDRSRGNVNPQVFAIEKDGMNHADHIITVSNLTRRTVIEKYGQHPDKVTTVHNAVEPLPASILALPDKRGVKDKVITFLGRITMQKGPEYFVEAAAKVLERTSDVRFVMAGNGDMMDAMIRLAARHKIADRFHFTGFMKGEQVYEVFKASDVYVMPSVSEPFGISPLEAMQCGVPSIISKQSGCAEILDYAIKVDYWDIDAMADAMHALIAYPELHTFLRDEGLREVNNIKWETAGQKVRDIYNKVTGR” the “soluble on expression in E. coli” value was “not soluble”. In the case of “MGSDKIHHHHHHMPRPYTLFTGQWADLPFEEVARLASGWGYDGLEIAVSGDHLDAWRWDEPGYVQSKLAVLEKYNLKVWAISNHLKGQAVCDDPIDFRHEAIVGSKVWGDGDPEGVRTRAAEEMKHTARLAKALGVDTVVGFTGSSIWQYVAMFPPVPEKVIQAGYQDFADRWNPILDVFDECGVRFAHEVHPSEIAYDYWTTVRTLEAIGHREAFGLNWDPSHFMWQGIDPVSFIWDFKDRIYHVDCKDTKLRPTGRNTVLGSHLPWGDPRRGWDFVSAGRGDVPWESSFRALTAIGYDGPISVEWEDAGMDRLHGAPEALAALKKFDFPASQTSFDAAFSSKD”, the “soluble on expression in E. coli” value is reported as “not soluble”. In the case of “MTLENNMDKKLFCISTYGCQMNEEDSEKLSGMLKSQGYERTENKEEASIIIFNTCCVRENAENKVFGNLGQLKQLKKKNPNLVIAICGCMMQQVGMADKVLKTFPYVDIIFGTHNAHKFPEYLHRVLQEGVQVKEILNKEEGIVEGLPIDRKSDVKAFVTIMYGCNNFCTYCIVPYVRGRERSRKSEDIIKEIEELVSQGYKEITLLGQNVNSYGKGLEEDIDFAGLLRKVNEVKGLERVRFMTSHPKDLSDDVIMAIKECDKLCEQVHLPVQSGSSRILKEMNRHYDREYYLDLVKKIKSEIPDVTLTTDIIIGFPGETEEDFLDTLSLCEEVGYDSAFTFIYSRRNHTPADKMENQIPDDIKHDRFNRLVEAINKKVVIKNKEYEGKVVEVLVEGPSKNDETKLTGRTRNGKLVNFAGDEKLVGELVNLKIVRAQPFSLIGEIVE”, the “soluble on expression in E. coli” value is reported as “soluble”. For “MGSDKIHHHHHHMAANRFNGFTDYGIGIGLRIPHYRHILDNKPVVDWFEIISENYMIDGGRPLAVLDAILEQYRVVQHGVSMYFGSVDPLNREHLKRLKNLTRRTKTPWLTDHLCWGSVDGRYTHDLMPLPYTWEAIDVTVAKIKQVRDYLEIPVAVENVSSYAEFHESEMTEWEFLNEVVERADCGILLDVNNIYVSSMNHSFDPHVYVDSVPAERVAQIHIAGHSKYEKYILDTHDHPVIDPVWQLYAHAIRRCGPTATLLEWDDHIPSFEEVHNEALKAKKFLAENAEPVEKKIAAAEARV”, the “soluble on expression in E. coli” value was “not soluble”. For “MSDEGLAPGKRLSEIRQQQGLSQRRAAELSGLTHSAISTIEQDKVSPAISTLQKLLKVYGLSLSEFFSEPEKPDEPQVVINQDDLIEMGSQGVSMKLVHNGNPNRTLAMIFETYQPGTTTGERIKHQGEEIGTVLEGEIVLTINGQDYHLVAGQSYAINTGIPHSFSNTSAGICRIISAHTPTTF”, the “soluble on expression in E. coli” value was “not soluble”. In the case of “MSSRAVSLFSKCGSRISQTRGKAHFTFQPSTTLPAGLENLEKTKMNLMQSVNEAMRIAMETDDSAVLFGEDVAFGGVFRCSLDLQKKFGKDRVFNTPLCEQGIAGFGIGVAAAGATAIAEIQFGDYIFPAYDQLVNEAAKFRYRSGNQFDCGKLTVRTTWGAVGHGALYHSQSPEANFTHTPGLKLVVPRGPVQAKGLLLSCIRDPNPCIFFEPKILYRLASEDVPTGDYTIPLGQAETVRSGKDLTLVAWGTQVHVALEAAQLAKEKLNADVEVIDLQTIQPWDEDHVVESVQKTGRLIVTHEAPISSGFGAEIASTVQKRCFLNLESPIDRVAGFDTPFPHVHEPFYLPTVHRVFDAIKKSVNY”, the “soluble on expression in E. coli” value is reported as “not soluble”. In the case of “METHLGWARSLEAVLSDRSALDAFQEWLIEYSSPQYLDLFFAIRAYERMALEGKPEKSQLSKSIYSKFLSSRTGNCEAIPKHFRAPIGEKLRHGTELEDRVFSHCSNFVQEFLRRQHEEFVGSEEFIEAFNKMSSTTADQLPGGSAHHSSHQNTMRRSSGTTSRKSAAQIATQLTAEALLKSKHDRHSKLGETKLEKMYPPTRQPYVCNATTSHNDSAVSSTFSGDTPEAHRMHSNRLRHIRDEQARENHGTMTLPRVEKASVDGQQWDHSSESGRRNFAMEITRKLLRHIDKVKLNDEMEKRIDDIEECRYTTIDMVNGTEPNDDLGKIDEDEELDDYLKMKMTDDSQKGSTNRSPKGPAGEPNKSGEGSKNTTLSPTNRAPAQLHNTIRVPRRKDYPRDTSASLKSHRHHQIDTNRMMSQSMCAPSYSSASSSYSRDSFAPAPTTRVNFAPGSSKSSQFYDSSGIGSMAPSAFSATSSLDYKDRRQHRKAPTPKKHSKIGKNLSNLITISYLGTDKIPVVTHVPNDGPMTLAEFKRHFALPNGAHQLFFKTECEDGSAPFQLLLIKDEHHLLPVFEGRIAAELR”, the “soluble on expression in E. coli” value is reported as “not soluble”. In the case of “GVKCEPIEELTINVPEEYSSKIIDMVTRRKGEMTMMENTGERINLEFDMPSRGIIGLRTNVLTASAGEAIMAHRFKEYQPFKGDIERRTNGSIIAMESGTAFAYAIDKLQDRGKFFIFPQEEVYAGQV”, the “soluble on expression in E. coli” value is reported as “not soluble”. With “MGSDKIHHHHHHMTTLDRKIDFTVILSVTKANPNGDPLNGNRPRQNYDGYGEISDVAIKRKIRNRLQDMGESIFVQSNDRNLDGYASLRDRAEANDTIKKLMKTKNASDQVAAEACATWMDVRAFGQVFAFKGDKAGGVSVGVRGPVSIHTATSVAPIDVTSMQITKSVNSESGKERGSDTMGMKHRVDHGVYVFNGSINTQLAEKTNFTQEDAEKFKLALVSLFENDASSARPEGSMEVHKVYWWEHDSKLGRFSSAKVHRAVSVQALTDEPKSFLDYEIKVDALEGFTPEILDGL” the “soluble on expression in E. coli” value was “not soluble”. With “MLKQSMHSFVLLYPNVLLEGWNVEKVSERYEGEKWGTFWFQVVTPTGMFRVKEFFLDIMEPVFPDSCISQAKGDCFQYKGLVYWKGINYKGKESYVTSIWKTQVEISVDHGYVNQDEMERFLFELQPVNMELGKTILHTSFHLLSFQAKRSEMGEIGRCREWNAPDDVSYVNLLIHEKLNWKLESVGFGNDETQYVYWDEVNKLYALWVCRHKNKAYYPISSWTMNYGPKQIINGLEFYSHPNRGTVVYEDLGNEQIAYVFRGNPCTNFEQVKELFACL” the “soluble on expression in E. coli” value was “not soluble”. With “MGSDKIHHHHHHMLKTKTALTLSDKNYYSTEADWHYMSVSQYKNFNECEAATIARLKKIWLPCSDPKALLVGNYVHSYFESSKIHDLFKKENKDKMFSSRKPYGLLKDFQIAEQMIQRLKEEPAFMNLYKGEKEVIVTGQIENVNWKGKIDCLNLEDGYFVDIKTTKDIHERKWNDSYAERCTFIENYGYVLQMAVYKELLSQKYNREFVPIIAAVSKQTPSEVKLITLDEDKMHFEMIQLKENIEHIIKVKNGEEKPTLCGRCEYCRGQQRITHFTNMNDL” the “soluble on expression in E. coli” value was “not soluble”. For “MVRVCACLIVKNEAAHLARCLGSVQPWVDDIVVVDTGSTDETPAIARQFTERLFTFPWQDDFAAARNYSLEQATGDWILVIDADEVLVTLQEPPVPLGQQLAGSPFTAYQLLRREIGTGEQFSDFAIVRLFRNLPTLRYQGRFHEQLVSTAAAPLTIGTLETLRIDHYGYQPAQIQAKMRDRNIPILERIRASEGLPLHLLFALADMYQAVNNPVEAENCYQELFDRLLPHLLSGQLPENAPGALPEILNQLGRRLLATGDHDTLQLLCQQGLAWFPTYPPLNDLAGRWLMTLGFPLGATAYFEYCLELGRTNGYSKQMIFPLGYVREIAAEQLGRAYEALGDRERAAAAFAQAAALRQGKAHPQLEHHHHHH”, the “soluble on expression in E. coli” value was “soluble”. With “MSLRASTVKQHAFGLLIPELGQTEIFEPICQGMVAAQEAHNHVLIWGRSLAGSETTEADAKDVCARLISNRVSGVFFAPIEANPQKDAINRIISTMLSDAKIPIVLLDRDIVDYPQRSKFDVVGIDNRRAGCVATQHLIDAGCRRIGFIGRPHLAPSCVARCNGYRETVSNSSIPLAPTFAERLDPSDPILVGKVMDRHKPDGIVCSNDRTAALLMRTFATLKIAVPDQVRLVAFDDVKYASLVTVPLTTIHQPCDQLGAAAIQAMVQRIESPDMPPRDILVDFHLVVRESCGARMAREGHHHHHH” the “soluble on expression in E. coli” value was “soluble”.
